Results as given in patent US20250090676A1 (SUTRO BIOPHARMA, published 2025).

Experiments:
[1] = biological target: T1, human folate receptor alpha (hFOLR1) (human, UniProt P15328 25-234); assay: cell-based or functional assay
[2] = biological target: T2, cynomolgus monkey folate receptor alpha (cynomolgus monkey, UniProt P15328 25-234 (human entry)); assay: FACS, CHO-cFOLR1 cells
T2 construct: Expressed on the surface of stably transfected CHO cells; also called cyno FolR1; CHO-cyno FolR1
Procedure: (§1) CHO cells were transfected to stably express human (CHO-hFOLR1), cynomolgus (CHO-cFOLR1), or mouse (CHO-mFOLR1) target molecule FOLR1 on the cell surface. Parental CHO cells were used as a negative control to determine background binding levels. Parental CHO and stably transfected CHO-hFOLR1, CHO-cFOLR1, and CHO-mFOLR1 cells were cultured in Ham's F-12: high glucose DMEM (50:50) (Corning, Cellgro-Mediatech) supplemented with 10% heat-inactivated fetal bovine serum (Corning, Cellgro-Mediatech), 1% Penicillin/Streptomycin (Corning, Cellgro-Mediatech) and 2 mmol/L-glutamax (Life Technology).
(§2) A mixture of fluoresecent-labeled parental CHO cells and unlabeled CHO-hFOLRlcells were prepared as follows. Parental CHO cells were washed twice in PBS and incubated in PBS containing with 1 nM CellTrace™ Oregon Green488® (Life Technologies) at 37° C. for 30 minutes. Labeled parental CHO cells were then washed 2× with Ham's F-12 media and 2× with FACS buffer (PBS with 1% bovine serum albumin). Unlabeled CHO-hFOLR1 cells were similarly washed and prepared. Labeled parental CHO and unlabeled CHO-hFOLR1 cells were combined at 1:1 ratio and seeded at 50 μL per well (200,000 cells per well) in 96 well polypropylene plates. Cells were mixed with 50 μL of test antibodies (i.e., anti-FOLR1 variants) serially diluted in FACS buffer and incubated on ice for 60 mins. […] Data were analyzed using FlowJo® software (FlowJo, LLC; Ashland, OR) to determine mean fluorescence intensities. Binding constants were calculated using the statistical software, GraphPad Prism (GraphPad Software; La Jolla, CA) using the nonlinear regression equation, one site-specific binding with Hill slope. Secondary antibody alone was used as a control, in addition to measuring non-specific antibody binding to CHO parental cells.

[3] = biological target: T1, human folate receptor alpha (hFOLR1); assay: FACS, CHO-hFOLR1 cells;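 also: flow cytometry of serially diluted antibodies binding CHO cells stably expressing the receptor, 60 min on ice, mixed with dye-tagged parental CHO as background control, one-site specific fit with Hill slope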
[4] = biological target: T3, murine folate receptor alpha (mouse, UniProt P35846 25-232); assay: FACS, CHO-mFOLR1 cells;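 also: flow cytometry binding of serially diluted test antibodies to transfected CHO cells on ice, mean fluorescence intensity, parental CHO cells give background, Kd from one-site specific binding fit with Hill slope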
T3 construct: Expressed on the surface of stably transfected CHO cells; also called mouse FolR1; CHO-mouse FolR1
T3 sequence (P35846 25-232 limits assumed): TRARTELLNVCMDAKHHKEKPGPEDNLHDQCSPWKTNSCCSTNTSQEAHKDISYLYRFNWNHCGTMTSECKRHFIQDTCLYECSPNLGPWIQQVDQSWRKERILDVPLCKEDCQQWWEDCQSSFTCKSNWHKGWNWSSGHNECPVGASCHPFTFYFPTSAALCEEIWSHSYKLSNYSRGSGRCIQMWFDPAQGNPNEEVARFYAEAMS
Procedure: as §1, §2

T1 sequence (P15328 25-234 limits assumed): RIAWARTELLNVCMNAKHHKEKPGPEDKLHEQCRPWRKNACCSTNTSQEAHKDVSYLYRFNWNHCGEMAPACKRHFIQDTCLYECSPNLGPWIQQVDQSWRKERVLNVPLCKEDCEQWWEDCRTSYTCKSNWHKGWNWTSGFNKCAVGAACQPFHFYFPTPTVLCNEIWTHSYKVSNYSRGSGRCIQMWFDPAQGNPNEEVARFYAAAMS
T2 sequence (P15328 other isoform, or with tags, fused parts or gaps limits assumed): as the sequence (P15328 25-234 limits assumed) above, with I2T, W4R, R37K, Q117R, A146P, H171Y counted along it

| Binder | Igrov, 2° Antibody Cell Killing, Nb-SC239: EC50 [1] | Igrov, 2° Antibody Cell Killing, Nb-SC239: Span [1] | KB, 2° Antibody Cell Killing, Nb-239: EC50 [1] | KB, 2° Antibody Cell Killing, Nb-239: Span [1] | Bmax (MFI) [2] | Kd [2] | Bmax (MFI) [3] | Kd [3] | Bmax (MFI) [4] | Kd [4] | binding result [4] |
| --- | --- | --- | --- | --- | --- | --- | --- | --- | --- | --- | --- |
| SRP1848-A02 (antibody, V domains shown, HC variant paired with trastuzumab LC, cell-free expressed, HIS- and FLAG-tagged; also called Antibody 2) VH: EVQLVESGGGLVQPGGSLRLSCAASGFNISGFRIHWVRQAPGKGLEWVAGIYPESGATYYADSVKGRFTISADTSKNTAYLQMNSLRAEDTAVYYCARHLYVWDWVLDHVLDYWGQGTLVTVSS VL: not shown | 0.039 nM | 71% | 0.028 nM | 94% | 18500 MFI | 0.5 nM | 24700 MFI | 0.64 nM | 18600 MFI | 2.4 nM |  |
| SRP1848-D03 (antibody, V domains shown, HC variant paired with trastuzumab LC, cell-free expressed, HIS- and FLAG-tagged; also called Antibody 25) VH: EVQLVESGGGVVQPGGSLRLSCAASGFNIRYFSIHWVRQAPGKGLEWVGDIFPNDGSTDYADSVKGRFTISADTSKNTAYLQMNSLRAEETAVYYCARGHWSWPSGYWYYLDYWGQGTLVTVSS VL: not shown | 0.038 nM | 76% |  | 98% | 14100 MFI | 0.58 nM | 26000 MFI | 1.9 nM | 3170 MFI | 9.5 nM |  |
| SRP1848-G04 (antibody, V domains shown, HC variant paired with trastuzumab LC, cell-free expressed, HIS- and FLAG-tagged; also called Antibody 49) VH: EVQLVESGGGLVQPGGSLRLSCAASGFNIHSTDIHWVRQAPGKGLEWVAYITPAGGATFYADSVKGRFTISADTSKNTAYLQMNSLRAEDTAVYYCARYPYWFAGYMDYWGQGTLVTVSS VL: not shown | 0.016 nM | 75% | 0.051 nM | 92% | 12500 MFI | 0.25 nM | 25200 MFI | 0.76 nM | 2000 MFI | 2.5 nM |  |
| SRP1848-G07 (antibody, V domains shown, HC variant paired with trastuzumab LC, cell-free expressed, HIS- and FLAG-tagged; also called Antibody 51) VH: EVQLVESGGGLVQPGGSLRLSCAASGFNIHSTDIHWVRQAPGKGLEWVAYITPAGGATWYADSVKGRFTISADTSKNTAYLQMNSLRAEDTAVYYCARYPFWFAGYMDYWGQGTLVTVSS VL: not shown | 0.038 nM | 78% | 0.058 nM | 94% | 13700 MFI | 0.35 nM | 24900 MFI | 0.78 nM | 1980 MFI | 2.9 nM |  |
| SRP1848-G06 (antibody, V domains shown, HC variant paired with trastuzumab LC, cell-free expressed, HIS- and FLAG-tagged; also called Antibody 50) VH: EVQLVESGGGLVQPGGSLRLSCAASGFNIRSTDIHWVRQAPGKGLEWVAYITPAGGATYYADNVKGRFTISADTSKNTAYLQMNSLRAEDTAVYYCARQPYWFAGYMDYWGQGTLVTVSS VL: not shown | 0.026 nM | 81% | 0.057 nM | 96% | 12800 MFI | 0.31 nM | 25800 MFI | 0.63 nM | 1860 MFI | 11.1 nM |  |
| SRP1848-F07 (antibody, V domains shown, HC variant paired with trastuzumab LC, cell-free expressed, HIS- and FLAG-tagged; also called Antibody 42) VH: EVQLVESGGGLVQPGGSLRLSCAASGFNISNHSIHWVRQAPGKGLEWVGEIYPNDGITDYADSVKGRFTISADTSKNTAYLQMNSLSAEDTAVYYCARGSWDWRSGYSYYLDYWGQGTLVTVSS VL: not shown | 0.018 nM | 71% | 0.057 nM | 92% | 18700 MFI | 0.56 nM | 27400 MFI | 0.58 nM | 1390 MFI | 8.8 nM |  |
| SRP1848-F08 (antibody, V domains shown, HC variant paired with trastuzumab LC, cell-free expressed, HIS- and FLAG-tagged; also called Antibody 43) VH: EVQLVESGGGLVQPGGSLRLSCAAGGFNISNHSIHWVRQAPGKGVEWVGEIYPVDGITDYADSVKGRFTISADTSKNTAYLRMNSLRAEDTAVYYCARGSWYWQSGYSYYLDYWGQGTLVTVSS VL: not shown | 0.024 nM | 77% | 0.061 nM | 94% | 21000 MFI | 1.07 nM | 26500 MFI | 0.91 nM |  |  | no binding |
| SRP1848-G03 (antibody, V domains shown, HC variant paired with trastuzumab LC, cell-free expressed, HIS- and FLAG-tagged; also called Antibody 48) VH: EVQLVESGGGLVQPGGSLRLSCAASGFNISTYYIHWVRQAPGKGLEWVGGITPSDGFTDYADSVKGRSTISADTSKNTAYLQMNSLRAEDTAVYYCARGSWSWPSGHGYFLDYWGQGTLVTVSS VL: not shown | 0.021 nM | 76% | 0.064 nM | 91% | 19200 MFI | 0.44 nM | 26400 MFI | 0.82 nM | 2220 MFI | 2.4 nM |  |
| SRP1848-G01 (antibody, V domains shown, HC variant paired with trastuzumab LC, cell-free expressed, HIS- and FLAG-tagged; also called Antibody 47) VH: EVQLVESGGGLVQPGGSLRLSCAASGFNISRHSIHWVRQAPGKGLEWVGWIAPNDGSTDYADSVKGRFTISADTSKNTAYLQMNSLRAEDTAVYYCARGSWAWRSGYSYFLDYWGQGTLVTVSS VL: not shown | 0.022 nM | 66% | 0.07 nM | 91% | 20900 MFI | 0.56 nM | 27400 MFI | 0.98 nM | 1990 MFI | 4.6 nM |  |
| SRP1848-F11 (antibody, V domains shown, HC variant paired with trastuzumab LC, cell-free expressed, HIS- and FLAG-tagged; also called Antibody 46) VH: EVQLVESGGGLVQPGGSLRLSCAASGFNISNNYIHWVRQAPGKGLEWVGGITPIDGNTDYADSVKGRFTISADTSMNTAYLQMNSLRAEDTAVYYCARGSWYWRAGYGYYLDYWGQGALVTVSS VL: not shown | 0.017 nM | 70% | 0.054 nM | 91% | 21800 MFI | 0.47 nM | 26800 MFI | 0.75 nM | 1760 MFI | 4.6 nM |  |
| SRP1848-H01 (antibody, V domains shown, HC variant paired with trastuzumab LC, cell-free expressed, HIS- and FLAG-tagged; also called Antibody 55) VH: EVQLVESGGGLVQPGGSLRLSCAASGFNIRTQSIHWVRQAPGKGLEWIGDIFPIDGITDYADSVKGRFTISADTSKNTAYLQMNSLRAEDTAVYYCARGSWSWPSGMDYYLDYWGQGTLVTVSS VL: not shown | 0.016 nM | 67% | 0.049 nM | 96% | 17200 MFI | 0.28 nM | 27000 MFI | 0.59 nM | 3950 MFI | 33.8 nM |  |
| SRP1848-F09 (antibody, V domains shown, HC variant paired with trastuzumab LC, cell-free expressed, HIS- and FLAG-tagged; also called Antibody 44) VH: EVQLVESGGGLVQPGGSLRLSCAASGFNISNHYIHWVRQAPGKGLEWVGGISPLDGYTDYADSVKGRFTISADTSKNTAYLQMNSLRAEDTAVYYCARGAWSWRSGYGYYIDYWGQGTLVTVSS VL: not shown | 0.05 nM | 79% | 0.056 nM | 93% | 24200 MFI | 0.75 nM | 23800 MFI | 0.36 nM | 1670 MFI | 90.7 nM |  |
| SRP1848-F10 (antibody, V domains shown, HC variant paired with trastuzumab LC, cell-free expressed, HIS- and FLAG-tagged; also called Antibody 45) VH: EVQLVESGGGLVQPGGSLRLSCAASGFNISNNSIHWVRQAPGKGLEWVGSIFPNDGYTDYADSVKGRFTISADTSKNTAYLQMNSLRAEDTAVYYCARGSWFWRSGYGYYLDYWGQGTLVTVSS VL: not shown | 0.009 nM | 68% | 0.038 nM | 94% | 20700 MFI | 0.4 nM | 25600 MFI | 0.36 nM | 1740 MFI | 6.9 nM |  |
